Data on nine molecules can be found in patent publication US20250066826A1, “ARTIFICIAL SYNTHESIS METHOD FOR MALONYL-COENZYME A (COA) AND USE THEREOF” (SHANGHAI JIAO TONG UNIVERSITY, priority 2023, published 2025).

Type in all cases: biochemical
The nature of series [1]: Transaminase activity test using α-ketoglutaric acid as a substrate. As to conditions: 5 mM α-ketoglutaric acid, 5 mM β-alanine, 10 M purified transaminase, 10 M MCR-C, pH 7.8, 37° C.
A short description of series [2]: Transaminase activity test using pyruvic acid as a substrate (coupled with MCR-C, NADPH at 340 nm). As to conditions: 5 mM pyruvic acid, 5 mM β-alanine, 2.5 mM NADP+, 2.5 mM CoA, 1 M purified transaminase, 10 M MCR-C, pH 7.8, 37° C. The source says: It can be seen that the BauA has the best effect (FIG. 4A).
Series [3] can be described thus: Transaminase activity test using oxaloacetic acid as a substrate. The conditions noted are these: 5 mM oxaloacetic acid, 5 mM β-alanine, 10 M purified transaminase, 10 M MCR-C, pH 7.8, 37° C.
The nature of series [4]: Oxidoreductase activity test (coupled with BauA, increase at 340 nm). As to conditions: 1 M purified oxidoreductase, 37° C.; for activity of the target enzyme (in words): in-vitro reaction with 10 M BauA. How it is done:
Oxidoreductase activity test: in-vitro reaction was carried out in a total reaction volume of 200 μL, containing 100 mM Tris buffer (pH 7.8), 2 mM MgCl2, 3 mM DTT, 5 mM pyruvic acid, 5 mM 3-alanine, 2.5 mM NADP^+, 2.5 mM CoA, 10 M BauA, and 1 M purified oxidoreductase, the reaction mixture was cultured at 37° C., and the increase in 340 nm was monitored.

B1: Pyd4: transaminase from Saccharomyces kluyveri, SEQ ID NO: 72 (protein)
chain: MPSYSVAELYYPDEPTEPKISTSSYPGPKAKQELEKLSNVFDTRAAYLLADYYKSRGNYIVDQDGNVLLDVYAQISSIALGYNNPEILKVAKSDAMSVALANRPALACFPSNDYGQLLEDGLLKAAPQGQDKIWTALSGSDANETAFKACFMYQAAKKRNGRSFSTEELESVMDNQLPGTSEMVICSFEKGFHGRLFGSLSTTRSKPIHKLDIPAFNWPKAPFPDLKYPLEENKEANKAEESSCIEKFSQIVQEWQGKIAAVIIEPIQSEGGDNHASSDFFQKLREITIENGILMIVDEVQTGVGATGKMWAHEHWNLSNPPDLVTFSKKFQAAGFYYHDPKLQPDQPFRQFNTWCGDPSKALIAKVIYEEIVKHDLVTRTAEVGNYLFNRLEKLFEGKNYIQNLRGKGQGTYIAFDFGTSSERDSFLSRLRCNGANVAGCGDSAVRLRPSLTFEEKHADVLVSIFDKTLRQLYG
modifications: The sequence is synthetized.
As to B1, the “activity of the transaminases” value in series [1] stood at 1.15 µmol/min/mg.

B2: BauA: transaminase from Pseudomonas aeruginosa, amino acid sequence SEQ ID NO: 7 (protein)
chain: MNQPLNVAPPVSSELNLRAHWMPFSANRNFQKDPRIIVAAEGSWLTDDKGRKVYDSLSGLWTCGAGHSRKEIQEAVARQLGTLDYSPGFQYGHPLSFQLAEKIAGLLPGELNHVFFTGSGSECADTSIKMARAYWRLKGQPQKTKLIGRARGYHGVNVAGTSLGGIGGNRKMFGQLMDVDHLPHTLQPGMAFTRGMAQTGGVELANELLKLIELHDASNIAAVIVEPMSGSAGVLVPPVGYLQRLREICDQHNILLIFDEVITAFGRLGTYSGAEYFGVTPDLMNVAKQVTNGAVPMGAVIASSEIYDTFMNQALPEHAVEFSHGYTYSAHPVACAAGLAALDILARDNLVQQSAELAPHFEKGLHGLQGAKNVIDIRNCGLAGAIQIAPRDGDPTVRPFEAGMKLWQQGFYVRFGGDTLQFGPTFNARPEELDRLFDAVGEALNGIA
modifications: The sequence is synthetized.
Turning to B2, the “activity of the transaminases” value in series [2] stood at 1.60 µmol/min/mg; in series [3], 0.46 µmol/min/mg.

B3: pydD: transaminase from Ureibacillus massiliensis, SEQ ID NO: 71 (protein)
chain: MSDYLSIKEQDKQYVLHSWAKQGSFNPKVIAKAEGVCFWDDAGNRYFDMSSQLVYVNVGHQHPKVLKAFQEIGTYPLAGPSFATKPKSDLSQRIIELAPSNMAKVFYTSGGAEANDHAVKIARMVSGRYKIFSRYRSYHGATFGAGNLTGESRRFAAEPGLPGFVKFEVPYLYREVIDFDSEEAATAYYLGKLRNQILYEGSDTIAAIFIEPIPGSNGVLIPPKGYLEGVRALCDEFGILMICDEVMTGFGRTGKGFAVDHYDFKPDIMTFAKGVTSGYAPLGGVIISEDISRFFDENVLMTGLTYSGHTMCTQIGVANLEVYEEENIFENAEKMGILLKQRLEKLLTFPSIGEIRSIGLFAGVELVKDKATKEPIIQYGLDYGKDPVGLMNKFISMLSANGFYTYSHESTVIIAPPLIITEEQINEAMDIFESTLKQFEKEGLFPEETLSV
modifications: The sequence is synthetized.
As for B3, the “activity of the transaminases” value in series [1] is 0.825 µmol/min/mg.

B4: AptA: transaminase from Acinetobacter pittii, SEQ ID NO: 8 (protein)
chain: MVMFDTDKFSDSEHTLDAVQPNNNMYINYQAHWMPFSANRNFAKDPRMIVGAKGSYLIDDSGREIYDSLSGLWTCGAGHTLPEIQQAVSAQLGQLDYSPAFQFGHPLSFKLADKIVQHMPEKLQHVFFTNSGSESADTAIKMARAYWRIKGKPSKTKLIGRARGYHGVNVAGTSLGGIGGNRKMFGQLMDVDHLPHTLQPNLTFTKGCAETGGVELANEMLKLIELHDASNIAAVIVEPISGSAGCIVPPTGYLQRLREICDQHDILLIFDEVITGFGRLGTWTGAEYFGVTPDILNFAKQVTNGAIPLGGVVASHEIYSAFMQQELPEHAIEFTHGYTYSAHPVACAAALAALEVLEKKNLLAQSAALAPSFEKMLHGLKGAPHVLDIRNCGLIGALQLAPRDGDATIRGFELGMKLWKEGFYVRFGGDTLQFGPMFNGTEADIDRLMNAVGDALYQVN
modifications: The sequence is synthetized.
Take B4: the “activity of the transaminases” value in series [2] was determined as 0.90 µmol/min/mg; in series [3], 0.42 µmol/min/mg.

B5: CCNA_03245: transaminase from Caulobacter vibrioides, SEQ ID NO: 9 (protein)
chain: MLPMPDFGANDLDAFWMPFTPNRRFKRHPRMLSSASGMWYRTPESREVLDATSGLWCVNAGHDRPKIREAIQKQAAEMDYAPCFNMGHPLAFQFASRLAQITPKGLDRIFFTNSGSESVDTALKIALAYHRARGKGTKTRLIGRERGYHGVGFGGISVGGIPKNRMYFGSLLTGVDHLPHTHGLPGNTCAKGQPENGAHLADDLERIVALHDASNIAAVIVEPVAGSTGVLIPPKGYLERLRAICDKHDILLIFDEVITGFGRVGAPFAAERFGVTPDLICMAKGLTNAAVPCGAVAASGKIYDAMMDGADAPIELFHGYTYSAHPLACAAGLATLETYREDDLFARAAGLEGYWQDAMHSLADARHVVDVRNLGLVAGIELEPRPGAPTARAMEVFETCFDEGLLIRVTGDIIALSPPLILEKDHIDRMVETIRRVLGQVD
modifications: The sequence is synthetized.
On to B5, for which the “activity of the transaminases” value in series [2] was 0.13 µmol/min/mg.

B6: Msed_0709: oxidoreductase from Metallosphaera sedula, SEQ ID NO: 13 (protein)
chain: MRRTLKAAILGATGLVGIEYVRMLADHPYIKPTYLAGKGSVGKPYGEIVRWQTVGNVPKEVANQEVKPTDPKLMDDVDIIFSPLPQGAAGPVEEQFAKLGFNVISNSPDHRFDMDVPMIIPEVNPHTVTLIDEQRKRRDWKGFIVTTPLCTAQGAAIPLTPIYQNFKMSGVMITTMQSLSGAGYPGIASLDIVDNALPLGDGYDAKTVKEITRILSEVKRNVQEPGVNEITLDATTHRIATIHGHYEVAYVTFKEDTDVRKVMESMESFKGEPQDLKLPTAPEKPIIVTTQDARPQVFFDRWAGNPPGMSVVVGRLKQVNPRTIRFVSLIHNTVRGAAGGGVLTAELLVEKGYIDKR
modifications: The sequence is synthetized.
Turning to B6, the “activity of the target enzyme (in words)” value in series [4] is “exhibit the activity of the target enzyme”.

B7: PydD2: transaminase from Bacillus megaterium, SEQ ID NO: 10 (protein)
chain: MVQVSQNEKDLRAKDEQYVWHGMKPYSPDATMVATKAKGAWITDEQGNRYLDAMAGLWCVNTGYGRDELALAAYEQLKELAYFPLTQSHVPAIKLAEKLNEMLGDDYVIFFSNSGSEANETAFKIVRQYHQQKGEHSRYKFISRYRGYHGNSMGALAATGQAQRKYKYEPLAPGFIHVAPPDSYRGQDDYDAPKEQLQSVKDIDNVMTWELSETIAAVIMEPIITGGGILLPPQNYMKGVKETCEKHGALLIADEVICGFGRTGEAFGFMNYDVKPDIITMAKGITSAYLPLSATAVKKEIYEAFKDSDQYEYFRHVNTFGGSPAACALALKNLEIMERENLFDRSKQLGAYVLSELTPLIDSHPYVGDVRGKGLLIGIELVADKQTKEPLDVNLVNEVVAKCKSKGVIIGKNGATVAGYNNVLTLSPPLNIEESDIELLLATITYALDSIK
modifications: The sequence is synthetized.
For B7, the “activity of the transaminases” value came to 0.96 µmol/min/mg in series [2] and 0.49 µmol/min/mg in series [3].

B8: YhxA: transaminase from Bacillus cereus, SEQ ID NO: 11 (protein)
chain: MELMIVQVTEQTQSLKKTDEKYLWHAMRGAAPSPTNLIITKAEGAWVTDIDGNRYLDGMSGLWCVNVGYGRKELARAAFEQLEEMPYFPLTQSHVPAIKLAEKLNEWLDDEYVIFFSNSGSEANETAFKIARQYHQQKGDHGRYKFISRYRAYHGNSMGALAATGQAQRKYKYEPLGQGFLHVAPPDTYRNPEDVHTLASAEEIDRVMTWELSQTVAGVIMEPIITGGGILMPPDGYMEKVKEICEKHGALLICDEVICGFGRTGKPFGFMNYGVKPDIITMAKGITSAYLPLSATAVRREVYEAFVGSDDYDRFRHVNTFGGNPAACALALKNLEIMENEKLIERSKELGERLLYELEDVKEHPNVGDVRGKGLLLGIELVEDKQTKEPASIEKMNKVINACKEKGLIIGKNGDTVAGYNNILQLAPPLSITEEDFTFIVKTMKECLAQL
modifications: The sequence is synthetized.
On to B8, for which, in series [2], the “activity of the transaminases” value is 0.15 µmol/min/mg.

B9: MCR-C: oxidoreductase (malonyl-CoA reductase) from Chloroflexus aurantiacu, SEQ ID NO: 70 (protein)
chain: SATTGARSASVGWAESLIGLHLGKVALITGGSAGIGGQIGRLLALSGARVMLAARDRHKLEQMQAMIQSELAEVGYTDVEDRVHIAPGCDVSSEAQLADLVERTLSAFGTVDYLINNAGIAGVEEMVIDMPVEGWRHTLFANLISNYSLMRKLAPLMKKQGSGYILNVSSYFGGEKDAAIPYPNRADYAVSKAGQRAMAEVFARFLGPEIQINAIAPGPVEGDRLRGTGERPGLFARRARLILENKRLNELHAALIAAARTDERSMHELVELLLPNDVAALEQNPAAPTALRELARRFRSEGDPAASSSSALLNRSIAAKLLARLHNGGYVLPADIFANLPNPPDPFFTRAQIDREARKVRDGIMGMLYLQRMPTEFDVAMATVYYLADRVVSGETFHPSGGLRYERTPTGGELFGLPSPERLAELVGSTVYLIGEHLTEHLNLLARAYLERYGARQVVMIVETETGAETMRRLLHDHVEAGRLMTIVAGDQIEAAIDQAITRYGRPGPVVCTPFRPLPTVPLVGRKDSDWSTVLSEAEFAELCEHQLTHHFRVARWIALSDGARLALVTPETTATSTTEQFALANFIKTTLHAFTATIGVESERTAQRILINQVDLTRRARAEEPRDPHERQQELERFIEAVLLVTAPLPPEADTRYAGRIHRGRAITV
modifications: The sequence is synthetized.
In series [4] (5 mM pyruvic acid, 5 mM alanine, 2.5 mM NADP+, 2.5 mM CoA, 10 M BauA), B9 gave an oxidoreductase activity of 2.0 µmol/min/mg. The “activity of the target enzyme (in words)” value in series [4] is reported as “exhibit the activity of the target enzyme”.
